Substitutions are numbered along the chain they refer to.
B1: hu37D3.v28 (antibody, V domains shown)
VH: EVQLVESGGGLVQPGGSLRLSCAASGLIFRSYGMSWVRQAPGKGLEWVATINSGGTYTYYPDSVKGRFTISRDNSKNTLYLQMNSLRAEDTAVYYCANSYSGAMDYWGQGTLVTVSS
VL: DDVLTQTPLSLPVTPGQPASISCRSSQSIVHSNGNTYFEWYLQKPGQSPQLLIYKVSNRFSGVPDRFSGSGSGTDFTLKISRVEAEDVGVYYCFQGSLVPWTFGQGTKVEIK
B2: hu37D3.v28.55 (antibody, V domains shown)
VH: B1 VH
VL: B1 VL with G34Q
B3: hu37D3.v28.C2 (antibody, V domains shown)
VH: B1 VH
VL: B1 VL with G34D
B4: hu37D3-H9.v31.2 (antibody, V domains shown)
VH: B1 VH
VL: B1 VL with G34A, N35V
B5: hu37D3-H9.v31.3 (antibody, V domains shown)
VH: B1 VH
VL: B1 VL with G34A, N35I
B6: hu37D3.v28.A4 (antibody, V domains shown)
VH: B1 VH
VL: B1 VL with F38L
notes: also called hu37D3-H9.v28.A4
B7: hu37D3-H9.v31.6 (antibody, V domains shown)
VH: B1 VH
VL: B1 VL with G34A, N35Y
B8: hu37D3.v28.C1 (antibody, V domains shown)
VH: B1 VH
VL: B1 VL with G34N
B9: hu37D3.v28.52 (antibody, V domains shown)
VH: B1 VH
VL: B1 VL with D1E, N33K
B10: hu37D3-H9.v30.1 (antibody, V domains shown)
VH: B1 VH
VL: B1 VL with N33G
B11: hu37D3-H9.v31.9 (antibody, V domains shown)
VH: B1 VH
VL: B1 VL with G34A, T36I
B12: hu37D3-H9.v30.2 (antibody, V domains shown)
VH: B1 VH
VL: B1 VL with N33T
B13: hu37D3.v28.E1 (antibody, V domains shown)
VH: B1 VH
VL: B1 VL with H31N
B14: hu37D3.v28.B6 (antibody, V domains shown)
VH: B1 VH
VL: B1 VL with N33D, Y37R
B15: hu37D3.v28.56 (antibody, V domains shown)
VH: B1 VH
VL: B1 VL with G34Y
B16: hu37D3-H9.v5.8 (antibody, V domains shown)
VH: B1 VH
VL: B1 VL with D1E, N35Q
B17: hu37D3.v28.A2 (antibody, V domains shown)
VH: B1 VH
VL: B1 VL with L98H
B18: hu37D3-H9.v31.7 (antibody, V domains shown)
VH: B1 VH
VL: B1 VL with G34A, N35R
B19: hu37D3-H9.v30.3 (antibody, V domains shown)
VH: B1 VH
VL: B1 VL with N33V
B20: hu37D3-H9.v31.8 (antibody, V domains shown)
VH: B1 VH
VL: B1 VL with G34A, T36V
B21: hu37D3-H9.v5.2 (antibody, V domains shown)
VH: B1 VH
VL: B1 VL with D1E, N33S
B22: hu37D3-H9.v30.4 (antibody, V domains shown)
VH: B1 VH
VL: B1 VL with N33L
B23: hu37D3.v28.A6 (antibody, V domains shown)
VH: B1 VH
VL: B1 VL with F38L, L98H
B24: hu37D3-H9.v5.9 (antibody, V domains shown)
VH: B1 VH
VL: B1 VL with D1E, N35E
B25: hu37D3-H9.v5.11 (antibody, V domains shown)
VH: B1 VH
VL: B1 VL with D1E, N35S
B26: hu37D3.v28.53 (antibody, V domains shown)
VH: B1 VH
VL: B1 VL with D1E, N33R
B27: hu37D3.v28.E2 (antibody, V domains shown)
VH: B1 VH
VL: B1 VL with H31Q
B28: hu37D3-H9.v5.7 (antibody, V domains shown)
VH: B1 VH
VL: B1 VL with D1E, N35D
B29: hu37D3.v28.54 (antibody, V domains shown)
VH: B1 VH
VL: B1 VL with D1E, N33L
B30: hu37D3.v28.57 (antibody, V domains shown)
VH: B1 VH
VL: B1 VL with G34F
B31: hu37D3-H9.v5.10 (antibody, V domains shown)
VH: B1 VH
VL: B1 VL with D1E, N35A
B32: hu37D3.v28.D1 (antibody, V domains shown)
VH: B1 VH
VL: B1 VL with S32A
B33: hu37D3.v28.B2 (antibody, V domains shown)
VH: B1 VH
VL: B1 VL with N33M, Y37F
B34: hu37D3.v28.B1 (antibody, V domains shown)
VH: B1 VH
VL: B1 VL with N33I, Y37F
B35: hu37D3-H9.v31.5 (antibody, V domains shown)
VH: B1 VH
VL: B1 VL with G34A, N35F

Target: T1, recombinant human Tau monomer, 2N4R isoform (amino acids 2-441) (human, UniProt P10636-8 2-441)
T1 construct: range 2-441; N-terminal His-tag removed with TEV protease; also called monomeric Tau
Test: SPR, captured IgG, Tau monomer analyte, 1:1 model; fit-quality column: Yes
Procedure: (§1) Briefly, IgGs in 1 mL culuture were captured using tip columns that were custom packed with 20 μL MabSelect SuRe resin (Glygen Corp & GE Healthcare). After washing with 1×PBS pH 7.4, IgGs were eluted into 160 μL of 50 mM phosphoric acid pH 3 and neutralized with 12 μL of 20×PBS pH 11. MabSelect SuRe tip columns were stripped in 0.1 M NaOH and regenerated with 1×PBS pH 7.4 for consecutive use of up to 15 times. Purified antibodies in 96-well format were normalized to 0.1 mg/ml using a Hamilton Star liquid handling robot. The “pre-stress” samples were kept at approximately 4° C. and the “post-stress” samples were incubated at 40° C. for two weeks in a PCR machine. Functional stability of the variants was compared by running surface plasmon resonance kinetics experiments with the “pre-stress” and “post-stress” antibody preps. The antibodies were assessed using a human antibody capture CM5 Series S chip generated using the GE Biacore human IgG capture kit and a Biacore T200 instrument. Antibodies diluted to 2 μg/ml were immobilized using a 15 second injection time and 10 μl/min flow rate. Binding to Tau monomer at 0 nM, 26.5 nM and 265 nM, at 25° C., using a flow rate of 40 μl/min, was monitored for a 180 second association phase followed by a 300 second dissociation phase. Samples were run in 10 mM HEPES pH7.4, 150 mM NaCl, 0.05% Tween 20 (HBSP) using a multi-cycle kinetics format. Data was analyzed using BIAevaluation software, fitting a 1:1 binding model. The resulting affinity (KD) values are shown in FIG. 8A-D. A Stability Index was also calculated, using the rationale that affinity-compromised antibodies (due for example to deamidation of key residues) are expected to contribute equally to the IgG capture level (“Ligand Level”) but to contribute less to the measured Tau binding, and that this would be reflected in the experimentally derived value for Rmax. To account for variations in the amount of each antibody captured, Rmax was normalized for the antibody capture level (as measured by “Ligand Level”, Response Units immobilized during antibody capture). Thus Normalized Rmax is calculated as the experimental Rmax (units=RU) divided by the “Ligand Level” (Evaluation output representing the RU captured during the hIgG capture step, units=RU), and Stability Index is calculated here as Normalized Rmax (post-stress) divided by Normalized Rmax (pre-stress).

T1 sequence (P10636 other isoform, or with tags, fused parts or gaps limits assumed): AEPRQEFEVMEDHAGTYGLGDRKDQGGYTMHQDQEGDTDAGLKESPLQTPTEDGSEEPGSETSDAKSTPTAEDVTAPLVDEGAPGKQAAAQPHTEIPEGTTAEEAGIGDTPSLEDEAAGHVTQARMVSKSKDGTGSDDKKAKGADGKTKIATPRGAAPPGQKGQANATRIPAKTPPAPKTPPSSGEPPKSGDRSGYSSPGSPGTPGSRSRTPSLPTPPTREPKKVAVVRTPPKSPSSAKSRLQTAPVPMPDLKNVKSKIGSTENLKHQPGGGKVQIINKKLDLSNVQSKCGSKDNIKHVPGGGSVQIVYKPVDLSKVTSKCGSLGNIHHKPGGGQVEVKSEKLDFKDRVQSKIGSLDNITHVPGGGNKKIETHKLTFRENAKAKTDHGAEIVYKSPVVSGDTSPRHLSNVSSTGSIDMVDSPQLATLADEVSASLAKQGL

Binder | Kd [nM]
B1 | 0.9
B2 | 2.6
B3 | 9.6
B4 | 10.6
B5 | 9.8
B6 | 1.2
B7 | 15.5
B8 | 1.4
B9 | 17.6
B10 | 23.5
B11 | 7.5
B12 | 4.2
B13 | 20.1
B14 | 85.6
B15 | 5.4
B16 | 2.2
B17 | 32.6
B18 | 6.9

Binder | Kd [nM]
B19 | 38.1
B20 | 10.9
B21 | 10.9
B22 | 22
B23 | 38.3
B24 | 5.3
B25 | 97.7
B26 | 22.9
B27 | 22.5
B28 | 13
B29 | 24.8
B30 | 4.4
B31 | 4.7
B32 | 5.7
B33 | 31.8
B34 | 24.3
B35 | 15.2

Target: T1, recombinant human Tau monomer, 2N4R …
Test: SPR; Normalized Rmax post-stress (2 weeks 40 C) / pre-stress
Procedure: as §1

Binder | Stability Index [%]
B1 | 78
B2 | 82
B3 | 75
B4 | 90
B5 | 93
B6 | 96
B7 | 90
B8 | 77
B9 | 80
B10 | 87
B11 | 81
B12 | 96
B13 | 46
B14 | 46
B15 | 76
B16 | 90
B17 | 72
B18 | 83

Binder | Stability Index [%]
B19 | 83
B20 | 78
B21 | 97
B22 | 87
B23 | 82
B24 | 95
B25 | 71
B26 | 76
B27 | 28
B28 | 67
B29 | 82
B30 | 88
B31 | 78
B32 | 73
B33 | 83
B34 | 101
B35 | 85

Source: patent US20190367592A1 (AC IMMUNE, published 2019)
